In general, Kd refers to the free concentration of one partner at which half of the binding sites on the other are occupied at equilibrium, for simple one-to-one binding. Lower therefore signals tighter binding.

To fix the notation:
B3: eGFP-Elp456 (Drosophila, wild type) (complex)
chain 1: MTSFRKRTVQKPIRGTRTSPHTAQVITSSGNPYLDVVIGGGLPMGSICLIEEDRFMTHAKVLAKYFLAEGVISKQEIFLGSLDDIPAEMLRRLPRPLTDQESMEQSEVQALGDAGAENGLRIAWRYNDLPLVNSEHATAKIGHHFNLMEQMDSMMLYNVKTTLWDDSPKHLDIVIDEEFSKSSSPTTPSLEQQPVEDAPPIPGTETAPQEKMPAQEEENSANNNNNNNNNSSSVTSSTKTGSQDSPLQVFHNPRYKGLLNDIQQLLRNESFVAGTKNNLCRVCLTSLGSPLWYDEHFGEDLIKFLTLLMASVRNCNSVCLITMPMHLIAKYDASLVPKIRQLVDYAIELESFAGSERETHPAFKEYSGLLHLHKMSAINTLAVHMPETPDLAFKLRRKKFIIEKFHLPPELQESSAKPDNCISGLLSNSNATASLDF
chain 2: MLSNLVVTKQKVVLVIDELNRERIAPKFIGSLLHEQGQGADTIKALPTGVSLKHVATFEALIDKYANNNTGSTTDSNSTGFNVILPTLADLLCYQTPAFIFGFLNRLRRSDNVRRVFLWASPQHLQDPHADYILAGCEYLAELVLRLESDKLLSLISRKPGGGVSNRRYSCEVSKTQFKVTPLDGGLPAGASPKQPSPEAEQTTEPASSTFKIELDEDEVLARNALTLPYERTSEPSEGNIIYTPDADDDFDEEDPDEDLCI
chain 3: MATSVLLACGLNEQKLPGFVHISEESNVDASFLISCVLGQRLRISNAGTLLVCLQHHYQHYFNAGMRLGYNTNIFQGKTLGVIDVLSDMAGEGLASKWLTNTEGQTLTDQLVEDIRAQVERNYASRNSYTVLIDNLSILFNLGASKLQVQQFCQDLAALGKEREKLTVITKLSNSDIYQLTDNNVAKLGQVRIQVLRLKSGVFREVDGKLLIERVLDEGNYACEETRKEVLYKVNDRNVKVFAPGEIGVKV
notes: Elp4, Drosophila melanogaster; Elp5, Drosophila melanogaster; ORF; Elp6, Drosophila melanogaster; it is put on Elp4 here only by the name eGFP-Elp456 (surmised); also called eGFP-Elp456 (WT); source: E. coli BL21 (DE3) Rosetta2, purified (Glutathione Sepharose, TEV elution, Superdex 200); not shown: GST, N-terminal, cleaved; copies: 2 + 2 + 2

The target of experiment [1] is B3. In words: MST; Monolith X, 25 °C; eGFP-Elp456 (WT or mutated) constant at 50 nM, tubulin or Elp123 in twofold dilution series; binding buffer with 0.05% Tween-20.
Experiment [2] concerns the target eGFP-Elp456 solo (Drosophila, three point mutations in each subunit) (Drosophila) (UniProt Q9VMQ7). The experiment is described as above.
Experiment [3] deals with B3. Briefly: MST; as a11, with 100 µM tRNA (and 2.5 mM MgATP by the legend) in the buffer of both partners. The settings on record: both partners purified.
Experiment [4] concerns the target microtubules assembled from porcine brain tubulin (pig, UniProt Q2XVP4 1-451, rhodamine, AMCA, HiLyte 647 or biotin on part of the tubulin, by experiment). In words: TIRF microscopy of decorated microtubules; GMPCPP-stabilized microtubules settled on passivated glass, proteins added one after the other in BRB80 imaging buffer; 100 nM 488-SNAP-Elongator or 488-SNAP-Elp123, 500 nM mScarlet-Elp456, 15 µM 647-GTP-Tubulin. The settings on record: both partners purified.

The target in experiment [5] is T1, Elp123 subcomplex (Drosophila Elp1, Elp2 and His6-PC-SNAP-Elp3) (Drosophila melanogaster, UniProt Q9VGK7 1-1252; Q7K4B3 1-794; Q9VQZ6 1-552, Alexa Fluor 488 on the SNAP tag).
T1 construct: Elp1, Drosophila melanogaster, codon-optimised synthetic gene, untagged; Elp2, Drosophila melanogaster, codon-optimised synthetic gene, untagged; Elp3, Drosophila melanogaster, codon-optimised synthetic gene; Elutes at about 600 kDa, a dimer of Elp1-Elp2-Elp3 protomers; source: Sf9, baculovirus (biGBac pBig1a), purified (Protein C resin, heparin, Superose 6); not shown: His6, N-terminal, kept; …
In words: MST; Monolith X, 25 °C; eGFP-Elp456 (WT or mutated) constant at 50 nM, tubulin or Elp123 in twofold dilution series; binding buffer with 0.05% Tween-20. Conditions: both partners purified.

T1 sequence (Q9VGK7 whole entry, chain 1 of 3): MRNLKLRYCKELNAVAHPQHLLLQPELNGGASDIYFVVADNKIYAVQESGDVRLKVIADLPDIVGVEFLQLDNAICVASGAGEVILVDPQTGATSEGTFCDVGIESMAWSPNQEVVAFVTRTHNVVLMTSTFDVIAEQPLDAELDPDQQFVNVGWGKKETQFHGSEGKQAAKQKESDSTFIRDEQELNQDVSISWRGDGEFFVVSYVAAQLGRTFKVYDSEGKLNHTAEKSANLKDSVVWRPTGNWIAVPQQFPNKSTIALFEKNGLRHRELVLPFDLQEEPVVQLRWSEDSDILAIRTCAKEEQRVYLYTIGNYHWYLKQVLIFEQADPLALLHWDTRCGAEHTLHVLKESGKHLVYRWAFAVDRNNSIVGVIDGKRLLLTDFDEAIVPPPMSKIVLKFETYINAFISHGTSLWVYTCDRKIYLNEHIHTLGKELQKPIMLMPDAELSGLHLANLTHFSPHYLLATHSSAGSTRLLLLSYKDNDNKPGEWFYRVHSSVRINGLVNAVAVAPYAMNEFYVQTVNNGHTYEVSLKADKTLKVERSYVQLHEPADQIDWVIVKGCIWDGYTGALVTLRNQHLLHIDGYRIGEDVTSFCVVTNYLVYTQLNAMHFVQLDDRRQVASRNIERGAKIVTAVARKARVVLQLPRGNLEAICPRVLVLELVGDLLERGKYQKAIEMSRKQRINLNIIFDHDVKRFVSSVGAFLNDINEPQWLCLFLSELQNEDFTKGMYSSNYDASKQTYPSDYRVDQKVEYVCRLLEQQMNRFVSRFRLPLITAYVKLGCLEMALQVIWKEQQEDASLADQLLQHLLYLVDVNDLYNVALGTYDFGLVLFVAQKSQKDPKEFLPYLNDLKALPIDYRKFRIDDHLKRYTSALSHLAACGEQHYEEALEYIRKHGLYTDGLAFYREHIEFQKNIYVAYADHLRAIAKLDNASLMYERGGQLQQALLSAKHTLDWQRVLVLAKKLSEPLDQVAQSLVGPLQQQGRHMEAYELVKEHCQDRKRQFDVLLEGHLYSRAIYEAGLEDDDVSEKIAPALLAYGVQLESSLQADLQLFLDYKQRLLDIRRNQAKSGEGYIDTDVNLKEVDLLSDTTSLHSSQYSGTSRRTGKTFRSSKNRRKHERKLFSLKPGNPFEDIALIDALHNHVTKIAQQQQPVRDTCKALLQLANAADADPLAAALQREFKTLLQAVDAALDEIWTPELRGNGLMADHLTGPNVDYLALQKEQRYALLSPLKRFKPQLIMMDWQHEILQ
T1 sequence (Q7K4B3 whole entry, chain 2 of 3): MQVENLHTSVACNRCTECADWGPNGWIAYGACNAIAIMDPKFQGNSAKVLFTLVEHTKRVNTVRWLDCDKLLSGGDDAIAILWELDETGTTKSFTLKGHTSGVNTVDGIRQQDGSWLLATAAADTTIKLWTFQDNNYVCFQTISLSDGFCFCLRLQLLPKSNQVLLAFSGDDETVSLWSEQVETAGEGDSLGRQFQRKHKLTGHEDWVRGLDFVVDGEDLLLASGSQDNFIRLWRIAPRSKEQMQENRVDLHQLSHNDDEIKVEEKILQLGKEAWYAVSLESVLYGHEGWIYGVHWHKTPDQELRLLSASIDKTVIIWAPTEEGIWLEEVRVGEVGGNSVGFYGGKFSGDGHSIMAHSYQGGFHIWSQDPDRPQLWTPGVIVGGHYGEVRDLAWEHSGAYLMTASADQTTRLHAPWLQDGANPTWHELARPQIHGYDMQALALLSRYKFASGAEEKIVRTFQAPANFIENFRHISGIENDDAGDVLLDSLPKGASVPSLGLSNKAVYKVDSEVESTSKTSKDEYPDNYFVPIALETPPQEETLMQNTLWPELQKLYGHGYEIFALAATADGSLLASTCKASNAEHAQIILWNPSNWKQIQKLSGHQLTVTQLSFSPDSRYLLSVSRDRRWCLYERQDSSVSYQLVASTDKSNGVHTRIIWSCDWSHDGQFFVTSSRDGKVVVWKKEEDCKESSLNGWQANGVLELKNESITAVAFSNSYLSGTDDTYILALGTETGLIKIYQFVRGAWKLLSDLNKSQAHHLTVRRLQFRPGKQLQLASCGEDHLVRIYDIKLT
T1 sequence (Q9VQZ6 whole entry, chain 3 of 3): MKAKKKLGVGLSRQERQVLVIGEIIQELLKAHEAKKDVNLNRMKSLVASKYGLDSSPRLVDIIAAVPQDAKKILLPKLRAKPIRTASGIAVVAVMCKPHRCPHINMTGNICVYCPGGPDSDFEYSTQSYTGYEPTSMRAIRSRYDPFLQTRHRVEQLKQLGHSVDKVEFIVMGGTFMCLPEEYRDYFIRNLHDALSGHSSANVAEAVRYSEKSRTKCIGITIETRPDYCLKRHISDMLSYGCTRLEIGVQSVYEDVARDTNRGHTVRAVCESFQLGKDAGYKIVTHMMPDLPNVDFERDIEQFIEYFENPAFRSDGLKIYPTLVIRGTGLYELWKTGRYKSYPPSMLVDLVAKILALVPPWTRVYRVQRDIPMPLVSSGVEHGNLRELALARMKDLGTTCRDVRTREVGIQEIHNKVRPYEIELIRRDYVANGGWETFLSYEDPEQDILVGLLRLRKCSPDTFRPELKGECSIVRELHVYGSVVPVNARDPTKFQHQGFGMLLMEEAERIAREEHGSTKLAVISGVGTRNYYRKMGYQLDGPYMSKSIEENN

For the molecule “tubulin purified from TTLL1/7-double KO mouse brain (lacking polyglutamylation) (from UniProt P68369 1-451; Q7TMM9 1-445) (complex)”, in experiment [1], the Kd is over 25000 nM.

As for “Elp123 subcomplex (Drosophila Elp1, Elp2 and His6-PC-SNAP-Elp3) (from UniProt Q9VGK7 1-1252; Q7K4B3 1-794; Q9VQZ6 1-552)”, in experiment [2], the dissociation constant Kd was determined as 67.1 nM. That is a double-digit nanomolar value.

The molecule “de-tyrosinated HeLa S3 tubulin (treated with carboxypeptidase A) (from UniProt P68363 1-451; P07437 1-444) (complex)” came in with a Kd in experiment [1] of over 22000 nM.

In experiment [1], “pig brain tubulin (free GTP-αβ-tubulin heterodimers) (from UniProt Q2XVP4 1-451; P02554 1-445) (complex)” had a Kd of 1800 nM.

As to “tubulin purified from HeLa S3 cells (from UniProt P68363 1-451; P07437 1-444) (complex)”, the Kd in experiment [1] amounted to 21200 nM.

B1: recombinant Drosophila α1β1-tubulin heterodimers (His6-PC-tubulin α1 84B with co-purified tubulin β1 56D) (complex)
chain 1: MRECISIHVGQAGVQIGNACWELYCLEHGIQPDGQMPSDKTVGGGDDSFNTFFSETGAGKHVPRAVFVDLEPTVVDEVRTGTYRQLFHPEQLITGKEDAANNYARGHYTIGKEIVDLVLDRIRKLADQCTGLQGFLIFHSFGGGTGSGFTSLLMERLSVDYGKKSKLEFAIYPAPQVSTAVVEPYNSILTTHTTLEHSDCAFMVDNEAIYDICRRNLDIERPTYTNLNRLIGQIVSSITASLRFDGALNVDLTEFQTNLVPYPRIHFPLVTYAPVISAEKAYHEQLSVAEITNACFEPANQMVKCDPRHGKYMACCMLYRGDVVPKDVNAAIATIKTKRTIQFVDWCPTGFKVGINYQPPTVVPGGDLAKVQRAVCMLSNTTAIAEAWARLDHKFDLMYAKRAFVHWYVGEGMEEGEFSEAREDLAALEKDYEEVGMDSGDGEGEGAEEY
chain 2: MREIVHIQAGQCGNQIGAKFWEIISDEHGIDATGAYHGDSDLQLERINVYYNEASGGKYVPRAVLVDLEPGTMDSVRSGPFGQIFRPDNFVFGQSGAGNNWAKGHYTEGAELVDSVLDVVRKEAESCDCLQGFQLTHSLGGGTGSGMGTLLISKIREEYPDRIMNTYSVVPSPKVSDTVVEPYNATLSVHQLVENTDETYCIDNEALYDICFRTLKLTTPTYGDLNHLVSLTMSGVTTCLRFPGQLNADLRKLAVNMVPFPRLHFFMPGFAPLTSRGSQQYRALTVPELTQQMFDAKNMMAACDPRHGRYLTVAAIFRGRMSMKEVDEQMLNIQNKNSSYFVEWIPNNVKTAVCDIPPRGLKMSATFIGNSTAIQELFKRISEQFTAMFRRKAFLHWYTGEGMDEMEFTEAESNMNDLVSEYQQYQEATADEDAEFEEEQEAEVDEN
modifications: the paper calls this tubulin highly modified (polyglutamylated, acetylated and partially detyrosinated)
notes: tubulin α1 84B, Drosophila melanogaster, codon-optimised gene; tubulin β1 56D, Drosophila melanogaster, endogenous, co-purified with the tagged α chain; also called recombinant Drosophila tubulin; PC-α-Tubulin; source: D.mel-2 (S2) cells stably transfected (pMT Puro), purified (Protein C resin, Superdex 200); also in S2 cell lysate; not shown: His6, N-terminal, kept; PC, N-terminal, kept
Regarding B1, the results for the dissociation constant Kd in experiment [3], in experiment [2] and in experiment [1] (both partners purified) were 2900 nM, 1600 nM and 1200 nM, respectively.

B2: mScarlet-Elp456 (Drosophila) (complex)
chain 1: MTSFRKRTVQKPIRGTRTSPHTAQVITSSGNPYLDVVIGGGLPMGSICLIEEDRFMTHAKVLAKYFLAEGVISKQEIFLGSLDDIPAEMLRRLPRPLTDQESMEQSEVQALGDAGAENGLRIAWRYNDLPLVNSEHATAKIGHHFNLMEQMDSMMLYNVKTTLWDDSPKHLDIVIDEEFSKSSSPTTPSLEQQPVEDAPPIPGTETAPQEKMPAQEEENSANNNNNNNNNSSSVTSSTKTGSQDSPLQVFHNPRYKGLLNDIQQLLRNESFVAGTKNNLCRVCLTSLGSPLWYDEHFGEDLIKFLTLLMASVRNCNSVCLITMPMHLIAKYDASLVPKIRQLVDYAIELESFAGSERETHPAFKEYSGLLHLHKMSAINTLAVHMPETPDLAFKLRRKKFIIEKFHLPPELQESSAKPDNCISGLLSNSNATASLDF
chain 2: MLSNLVVTKQKVVLVIDELNRERIAPKFIGSLLHEQGQGADTIKALPTGVSLKHVATFEALIDKYANNNTGSTTDSNSTGFNVILPTLADLLCYQTPAFIFGFLNRLRRSDNVRRVFLWASPQHLQDPHADYILAGCEYLAELVLRLESDKLLSLISRKPGGGVSNRRYSCEVSKTQFKVTPLDGGLPAGASPKQPSPEAEQTTEPASSTFKIELDEDEVLARNALTLPYERTSEPSEGNIIYTPDADDDFDEEDPDEDLCI
chain 3: MATSVLLACGLNEQKLPGFVHISEESNVDASFLISCVLGQRLRISNAGTLLVCLQHHYQHYFNAGMRLGYNTNIFQGKTLGVIDVLSDMAGEGLASKWLTNTEGQTLTDQLVEDIRAQVERNYASRNSYTVLIDNLSILFNLGASKLQVQQFCQDLAALGKEREKLTVITKLSNSDIYQLTDNNVAKLGQVRIQVLRLKSGVFREVDGKLLIERVLDEGNYACEETRKEVLYKVNDRNVKVFAPGEIGVKV
notes: Elp4, Drosophila melanogaster; Elp5, Drosophila melanogaster; ORF; Elp6, Drosophila melanogaster; put on Elp4 here by the name only (surmised); source: E. coli BL21 (DE3) Rosetta2, purified (Glutathione Sepharose, TEV elution, Superdex 200); not shown: GST, N-terminal, cleaved; copies: 2 + 2 + 2
For B2, the “fold less fluorescence intensity on microtubules without Elp123 than with it” value in experiment [4] was determined as 9.3 fold.

As for B3, the dissociation constant (Kd) in experiment [5] was determined as 15.5 ± 3.7 nM.

The values above are taken from PMC11876699, “Elongator is a microtubule polymerase selective for polyglutamylated tubulin” (The EMBO Journal, 2025).
